This note sets out measurements from patent US20200397827A1, “CHONDROCYTE PROLIFERATION PROMOTER, CHONDROCYTE PROLIFERATION PROMOTION METHOD, SCREENING METHOD FOR CHONDROCYTE PROLIFERATION PROMOTERS” (Tokyo University of Science Foundation, priority 2018, published 2020).

Holding throughout (type): cell-based, mouse
Assay [1] deals with ATDC5 cells. In words: Cell proliferation of ATDC5 cells in the presence or absence of AdipoR1 blocker. On the procedure:
ATDC5 cells were seeded into a 12-well plate at a cell density of 1×10^4/well and cultured in the presence or absence of 10 μg/ml AdipoR1 blocker (GeneTex) and in the presence or absence of 100 ng/ml recombinant human CTRP6 (Aviscera Bioscience) for 2 days (all n=4). As a medium, a HAM's F-12 medium containing 5% FBS and 1% penicillin/streptomycin was used.
Furthermore, 100 ng/ml adiponectin (BioVendor), 100 ng/ml AdipoRon (AdipoGen), or 50 ng/ml recombinant human CTRP3 (Aviscera Bioscience) was used instead of 100 ng/ml recombinant human CTRP6 to culture in the same manner as described above (all n=4). Meanwhile, when the AdipoRon was used, a culture period was 1 day.
After culturing, the number of cells was counted with a hemocytometer.

Assay [2] concerns ATDC5 cells. In words: Effect of MAPK inhibitor on cell proliferation of chondrocyte. Conditions: FIG. 3C. On the procedure: ATDC5 cells were seeded into a 48-well plate at a cell density of 2×10^4/well and cultured in the presence or absence of 50 ng/ml recombinant human CTRP6 (Aviscera Bioscience) for 2 days. A HAM's F-12 medium containing 5% FBS and 1% penicillin/streptomycin was used as a medium, and a carrier (DMSO), 1 μM ERK1/2 inhibitor (U0126, Sigma), 1 μM JNK inhibitor (SP600125, Sigma), or 1 μM p38 inhibitor (SB239063, Sigma) was further added thereto (all n=4).
After 2 day-culture, the number of cells was counted with a hemocytometer.

The test system of assay [3] is ATDC5 cells. In words: Cell proliferation of ATDC5 cells with adiponectin receptor siRNA introduced, recombinant human CTRP3. Conditions: 50 ng/ml, 2 days, FIG. 6A. The protocol: AdipoR1 siRNA, AdipoR2 siRNA, control siRNA-1, AdipoR3 siRNA, AdipoR4 siRNA, or control siRNA-2 was introduced (transfected) into ATDC5 cells in the same manner as in Test Example 4 (1).
Forty-eight hours after the introduction of the siRNAs, the ATDC5 cells were seeded into a 48-well plate at a cell density of 2×10^4/well and cultured in the presence or absence of 50 ng/ml recombinant human CTRP3 (Aviscera Bioscience) for 2 days (all n=4). After that, the number of cells was counted with a hemocytometer.

Assay [4] relates to ATDC5 cells. Description: Cell proliferation of chondrocyte line, cell count with hemocytometer. Conditions: 0, 100, 500 ng/ml, 4 and 7 day-culture, FIG. 3A. On the procedure:
In Test Example 3, a function of CTRP6 was analyzed using a mouse chondrocyte line ATDC5.
ATDC5 cells were seeded into a 12-well plate at a cell density of 5×10^4/well and cultured in the presence of various concentrations (0, 100, 500 ng/ml; all n=3) of recombinant human CTRP6 (Aviscera Bioscience). As a medium, a HAM's F-12 medium containing 5% FBS and 1% penicillin/streptomycin was used.
After 4 and 7 day-culture, the number of cells was counted with a hemocytometer.

The subject of assay [5] is primary chondrocytes of Clqtnf6−/− mice. In words: Chondrogenesis of primary chondrocytes (Alcian blue staining). Conditions: 0, 2.5, 5, 10 μg/ml, 7 days, FIG. 2B. The protocol:
Costal cartilage tissues from neonates (5 to 6 day-old) of the Clqtnf6^−/− mice and the wild-type mice were enzymatically digested with DMEM containing 0.5 mg/ml collagenase D to thereby obtain primary chondrocytes. Then, 2×10^5 cells were suspended into 10 μL of DMEM containing 10% FCS, seeded into a 24-well plate, and cultured at 37° C. for 2 hours (both n=3). Then, DMEM containing 10% FCS was added thereto at a volume of 500 μL per well and culturing was continued for 7 days. Then, the cells were fixed with 10% neutral buffered formalin, washed with 0.1 N HCl, and then stained with a 1% Alcian blue 8GX solution (Sigma-Aldrich) in order to confirm chondrogenesis.
In the same manner as described above, primary chondrocytes were obtained from the Clqtnf6^−/− mice, and then 2×10^5 cells were suspended into 10 μL of DMEM containing 10% FCS, seeded into a 24-well plate, and cultured at 37° C. for 2 hours. Then, DMEMs containing 10% FCS and various concentrations (0, 2.5, 5, 10 μg/ml; all n=3) of recombinant human CTRP6 (Aviscera Bioscience) were added thereto at a volume of 500 μL per well and culturing was continued for 7 days. Then, the cells were fixed with 10% neutral buffered formalin, washed with 0.1 N HCl, and then stained with a 1% Alcian blue 8GX solution (Sigma-Aldrich) in order to confirm chondrogenesis.

In assay [6] the test system is ATDC5 cells. Description: Cell proliferation of ATDC5 cells with adiponectin receptor siRNA introduced, recombinant human CTRP6. As to conditions: 100 ng/ml, 1 day. The protocol: ATDC5 cells were seeded into a 24-well plate at a cell density of […] and cultured in a HAM's F-12 medium containing 2.5% FBS for 24 hours. After culturing, 30 pmol of AdipoR1 siRNA, 30 pmol of AdipoR2 siRNA, 30 pmol of control siRNA-1, 6 pmol of AdipoR3 siRNA, 6 pmol of AdipoR4 siRNA, or 6 pmol of control siRNA-2 was introduced (transfected) thereinto and culturing was continued for 48 hours. Lipofectamine RNAiMAX (Invitrogen) was used to introduce the siRNAs.
Meanwhile, the AdipoR3 siRNA, the AdipoR4 siRNA, and the control siRNA-2 were purchased from IDT Teck (TriTECTa RNAi Kit). Base sequences of the AdipoR1 siRNA, the AdipoR2 siRNA, and the control siRNA-1 were as follows:
Forty-eight hours after the introduction of the siRNAs, the ATDC5 cells were seeded into a 48-well plate at a cell density of 2×10^4/well and cultured in the presence or absence of 100 ng/ml recombinant human CTRP6 (Aviscera Bioscience) for 1 day (all n=4). After that, the number of cells was counted with a hemocytometer.

In assay [7] the test system is ERK1/2. In words: ERK phosphorylation in ATDC5 cells with adiponectin receptor siRNA introduced, western blotting. Conditions: 10 ng/ml, 15 min. On the procedure:
ATDC5 cells into which the siRNA had been introduced were seeded into a 60 mm Petri dish at a cell density of 1×10^6/well and cultured in a serum-free HAM's F-12 medium for 4 hours. Then, the cells were washed with PBS and then cultured in a serum-free HAM's F-12 medium containing 10 ng/ml recombinant human CTRP6 (Aviscera Bioscience) for 15 min. Then, the cells were washed with a phosphatase-inhibiting buffer supplemented with PhosSTOP (Sigma) and then lysed with a lysis buffer (0.1% TritonX-100, 100 mM NaCl, 50 mM Tris-HCl (pH 7.5)). Western blotting analysis was performed in the same manner as in Test Example 3 (2).

In assay [8] the test system is ERK1/2. Description: Phosphorylation of MAPK, western blotting. Conditions: ATDC5; 10 ng/ml; 1, 5, 15 or 30 min; FIG. 3B. On the procedure:
ATDC5 cells were seeded into a 60 mm Petri dish at a cell density of 1×10^6/well and cultured in a serum-free HAM's F-12 medium for 4 hours. Then, the resultant was washed with PBS and then cultured in a serum-free HAM's F-12 medium containing 10 ng/ml recombinant human CTRP6 (Aviscera Bioscience) for 1 min, 5 min, 15 min, or 30 min. Then, the cells were washed with a phosphatase-inhibiting buffer supplemented with PhosSTOP (Sigma) and then lysed with a lysis buffer (0.1% TritonX-100, 100 mM NaCl, 50 mM Tris-HCl (pH 7.5)).
Then, the resultant cell lysate was subjected to electrophoresis on a 12.5% SDS-PAGE gel and proteins were transferred onto a PVDF membrane. The membrane onto which the proteins had been transferred was blocked by shaking in 5% BSA/TBS at room temperature for 1 hour. After blocking, the membrane was shaken in the presence of a primary antibody (rabbit monoclonal antibody) at room temperature for 1 hour to thereby undergo a primary antibody reaction. […] Intensity of each band was quantified with ImageJ software (NIH).

[9] abbreviates: 100 ng/ml, 2 days, FIGS. 5A, 5B.

Regarding `O=C(COc1ccc(C(=O)c2ccccc2)cc1)NC1CCN(Cc2ccccc2)CC1` [AdipoRon, reference compound], the “number of cells (cell proliferation)” value in the assay on ATDC5 cells [1] (100 ng/ml, culture period 1 day, FIG. 5C) was “facilitated cell proliferation”.
For the molecule `N#CC(=C(/N)Sc1ccccc1N)/C(C#N)=C(/N)Sc1ccccc1N` [ERK1/2 inhibitor, U0126, reference compound], in the assay with ATDC5 cells [2] (1 μM inhibitor, presence or absence of 50 ng/ml recombinant human CTRP6, 2 days), the “number of cells (cell proliferation) with MAPK inhibitor added” value was “inhibited cell proliferation”.

B1: recombinant human CTRP3: recombinant human CTRP3 (Aviscera Bioscience), C1q/TNF-related protein family; amino acid sequence SEQ ID NO: 2 (protein, listed as Homo sapiens)
chain: MLWRQLIYWQLLALFFLPFCLCQDEYMESPQTGGLPPDCSKCCHGDYSFRGYQGPPGPPGPPGIPGNHGNNGNNGATGHEGAKGEKGDKGDLGPRGERGQHGPKGEKGYPGIPPELQIAFMASLATHFSNQNSGIIFSSVETNIGNFFDVMTGRFGAPVSGVYFFTFSMMKHEDVEEVYVYLMHNGNTVFSMYSYEMKGKSDTSSNHAVLKLAKGDEVWLRMGNGALHGDHQRFSTFAGFLLFETK
With B1, the “number of cells (cell proliferation), AdipoR2 siRNA introduced” value in the assay on ATDC5 cells [3] was “facilitation of cell proliferation was not confirmed”.

B2: adiponectin: adiponectin (BioVendor), protein of the CTRP family; human amino acid sequence SEQ ID NO: 1 (protein, listed as Homo sapiens)
chain: MLLLGAVLLLLALPGHDQETTTQGPGVLLPLPKGACTGWMAGIPGHPGHNGAPGRDGRDGTPGEKGEKGDPGLIGPKGDIGETGVPGAEGPRGFPGIQGRKGEPGEGAYVYRSAFSVGLETYVTIPNMPIRFTKIFYNQQNHYDGSTGKFHCNIPGLYYFAYHITVYMKDVKVSLFKKDKAMLFTYDQYQENNVDQASGSVLLHLEVGDQVWLQVYGEGERNGLYADNDNDSTFTGFLLYHDTN
In the case of B2, the “number of cells (cell proliferation)” value with ATDC5 cells [1] (setting [9]) is on record as “facilitated cell proliferation”.

B3: recombinant human CTRP6: recombinant human CTRP6 (Aviscera Bioscience), C1q/TNF-related protein family; amino acid sequence SEQ ID NO: 3 (protein, listed as Homo sapiens)
chain: MQWLRVRESPGEATGHRVTMGTAALGPVWAALLLFLLMCEIPMVELTFDRAVASGCQRCCDSEDPLDPAHVSSASSSGRPHALPEIRPYINITILKGDKGDPGPMGLPGYMGREGPQGEPGPQGSKGDKGEMGSPGAPCQKRFFAFSVGRKTALHSGEDFQTLLFERVFVNLDGCFDMATGQFAAPLRGIYFFSLNVHSWNYKETYVHIMHNQKEAVILYAQPSERSIMQSQSVMLDLAYGDRVWVRLFKRQRENAIYSNDFDTYITFSGHLIKAEDD
With B3, the “number of cells (cell proliferation)” value is “facilitated cell proliferation” in the assay on ATDC5 cells [4]; “facilitated cell proliferation” with ATDC5 cells [2] (50 ng/ml, 2 days); “facilitated cell proliferation” in the assay with ATDC5 cells [1] (setting [9]); “also facilitated” in the assay on ATDC5 cells [1] (2 days, second statement of b158 (FIG. 5D, 50 ng/ml recombinant human CTRP3)). Also, the “chondrogenesis (intensity of Alcian blue stained cells)” value in assay [5] was “chondrogenesis was promoted in a recombinant human CTRP6 concentration-dependent manner”. The “number of cells (cell proliferation), AdipoR1 siRNA introduced” value in the assay with ATDC5 cells [6] (ATDC5 with AdipoR1 siRNA, FIG. 4A) is “facilitation of cell proliferation was not confirmed”. For the same molecule, the “number of cells (cell proliferation), AdipoR4 siRNA introduced” value in the assay on ATDC5 cells [6] (ATDC5 with AdipoR4 siRNA, FIG. 4B) was “facilitation of cell proliferation was not confirmed”. Also, the “phosphorylation of ERK1/2, AdipoR1 siRNA introduced” value in the assay with ERK1/2 [7] (ATDC5 with AdipoR1 siRNA, FIG. 4C) is “phosphorylation of ERK1/2 was not facilitated”. Also, in the assay with ERK1/2 [7] (ATDC5 with AdipoR4 siRNA, FIG. 4D), the “phosphorylation of ERK1/2, AdipoR4 siRNA introduced” value is given as “phosphorylation of ERK1/2 was not facilitated”. For the same molecule, the “phosphorylation of MAPKs (ERK1/2)” value in the assay on ERK1/2 [8] is reported as “facilitated phosphorylation of ERK1/2”.
